According to US20120034160A1 (AbbVie / Abbott, published 2012):

T1: Recombinant Human IL-17 (human, UniProt Q16552 20-155, limits assumed)
T1 sequence (looked up): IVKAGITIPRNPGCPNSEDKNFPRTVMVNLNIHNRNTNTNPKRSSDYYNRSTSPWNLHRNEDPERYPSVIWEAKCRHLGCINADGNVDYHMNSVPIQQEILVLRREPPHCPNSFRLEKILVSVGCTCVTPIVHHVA

T2: Recombinant Human IL-17 (human, UniProt Q16552 20-155, limits assumed)
T2 construct: bought reagent
T2 sequence (looked up): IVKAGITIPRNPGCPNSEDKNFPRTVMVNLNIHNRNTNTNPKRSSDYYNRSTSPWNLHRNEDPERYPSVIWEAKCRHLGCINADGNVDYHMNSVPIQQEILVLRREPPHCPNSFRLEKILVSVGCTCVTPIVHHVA


How the values were obtained:
Recombinant Human IL-1β [1] = biological target: Recombinant Human IL-1β (human, UniProt P01584 117-269); experiment: cell-based or functional assay
Recombinant Human IL-17 [2] = biological target: T1, Recombinant Human IL-17; experiment: cell-based or functional assay
Recombinant Human IL-17 [3] = biological target: T2, Recombinant Human IL-17; experiment: Biacore SPR; C-terminal VD
Method in brief: (§1)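 Reported constants are kon (M⁻¹s⁻¹), koff (s⁻¹) and KD, calculated as koff/kon from a global 1:1 Langmuir fit. Antigen at 10−200 nM was passed over antibody or DVD-Ig captured on an anti-mouse IgG Fcγ surface in HBS-EP pH 7.4 at 25° C.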

Recombinant Human IL-1β [4] = biological target: T3, Recombinant Human IL-1β (human, UniProt P01584 117-269); experiment: Biacore SPR; N-terminal VD
T3 construct: bought reagent; also called IL-1B
Method in brief: as §1

C-Terminal VD IL-1β Neutralization Assay EC50 (Recombinant Human IL-1β [1]) [pM]	N-terminal VD IL-17 Neutralization Assay EC50 (Recombinant Human IL-17 [2]) [pM]	N-Terminal VD IL-1β Neutralization Assay EC50 (Recombinant Human IL-1β [1]) [pM]	C-terminal VD IL-17 Neutralization Assay EC50 (Recombinant Human IL-17 [2]) [pM]	Kd (Recombinant Human IL-17 [3]) [pM]	koff (Recombinant Human IL-17 [3]) [s⁻¹]	kon (Recombinant Human IL-17 [3]) [M⁻¹ s⁻¹]	Kd (Recombinant Human IL-1β [4]) [pM]	koff (Recombinant Human IL-1β [4]) [s⁻¹]	kon (Recombinant Human IL-1β [4]) [M⁻¹ s⁻¹]	Binder
5850	16.3									DVD1628 (bispecific antibody, human IgG1, kappa) heavy: not shown light: DIQMTQSPSSLSASVGDRVTITCRASSGIISYIDWFQQKPGKAPKRLIYATFDLASGVPSRFSGSGSGTDYTLTISSLQPEDFATYYCRQVGSYPETFGQGTKLEIKRTVAAPETTVTQSPSSLSASVGDRVTITCITSTDIDVDMNWYQQKPGKPPKLLISQGNTLRPGVPSRFSSSGSGTDFTFTISSLQPEDFATYYCLQSDNLPLTFGQGTKLEIKRTVAAPSVFIFPPSDEQLKSGTASVVCLLNNFYPREAKVQWKVDNALQSGNSQESVTEQDSKDSTYSLSSTLTLSKADYEKHKVYACEVTHQGLSSPVTKSFNRGEC
		621	58.6							DVD1627 (bispecific antibody, human IgG1, kappa) heavy: not shown light: ETTVTQSPSSLSASVGDRVTITCITSTDIDVDMNWYQQKPGKPPKLLISQGNTLRPGVPSRFSSSGSGTDFTFTISSLQPEDFATYYCLQSDNLPLTFGQGTKLEIKRTVAAPDIQMTQSPSSLSASVGDRVTITCRASSGIISYIDWFQQKPGKAPKRLIYATFDLASGVPSRFSGSGSGTDYTLTISSLQPEDFATYYCRQVGSYPETFGQGTKLEIKRTVAAPSVFIFPPSDEQLKSGTASVVCLLNNFYPREAKVQWKVDNALQSGNSQESVTEQDSKDSTYSLSSTLTLSKADYEKHKVYACEVTHQGLSSPVTKSFNRGEC
		12.6	360							DVD1629 (bispecific antibody, human IgG1, kappa) heavy: not shown light: DIQMTQSPSSLSASVGDRVTITCRASGNIHNYLTWYQQTPGKAPKLLIYNAKTLADGVPSRFSGSGSGTDYTFTISSLQPEDIATYYCQHFWSIPYTFGQGTKLQITRTVAAPEIVLTQSPDFQSVTPKEKVTITCRASQDIGSELHWYQQKPDQPPKLLIKYASHSTSGVPSRFSGSGSGTDFTLTINGLEAEDAGTYYCHQTDSLPYTFGPGTKVDIKRTVAAPSVFIFPPSDEQLKSGTASVVCLLNNFYPREAKVQWKVDNALQSGNSQESVTEQDSKDSTYSLSSTLTLSKADYEKHKVYACEVTHQGLSSPVTKSFNRGEC
		4.17	460							DVD1631 (bispecific antibody, human IgG1, kappa) heavy: not shown light: DIQMTQSPSSLSASVGDRVTITCRASGNIHNYLTWYQQTPGKAPKLLIYNAKTLADGVPSRFSGSGSGTDYTFTISSLQPEDIATYYCQHFWSIPYTFGQGTKLQITRTVAAPEIVLTQSPDFQSVTPKEKVTITCRASQDIGSELHWYQQKPDQPPKLLIKYASHSTSGVPSRFSGSGSGTDFTLTINGLEAEDAGTYYCHQTDSLPYTFGPGTKVDIKRTVAAPSVFIFPPSDEQLKSGTASVVCLLNNFYPREAKVQWKVDNALQSGNSQESVTEQDSKDSTYSLSSTLTLSKADYEKHKVYACEVTHQGLSSPVTKSFNRGEC
1080	12.2									DVD1644 (bispecific antibody, human IgG1, kappa) heavy: not shown light: EIVLTQSPDFQSVTPKEKVTITCRASQNIGSELHWYQQKPDQSPKLLIKYASHSISGVPSRFSGSGSGTDFTLTINGLEAEDAATYYCHQSDTLPHTFGQGTKVDIKRTVAAPDTQVTQSPSSLSASVGDRVTITCITSTDIDVDMNWYQQKPGKPPKLLISQGNTLRPGVPSRFSSSGSGTDFTFTISSLQPEDFATYYCLQSDNLPLTFGQGTKLEIKRTVAAPSVFIFPPSDEQLKSGTASVVCLLNNFYPREAKVQWKVDNALQSGNSQESVTEQDSKDSTYSLSSTLTLSKADYEKHKVYACEVTHQGLSSPVTKSFNRGEC
				12000	0.0001	8500	33	4.8e-05	1.4e+06	DVD1262 (bispecific antibody, human IgG1, kappa, V1 wt hIgG1, V2 kappa; also called DVD1262H; DVD1262L) heavy: not shown light: DIQMTQSPSSLSASVGDRVTITCRASGNIHNYLTWYQQTPGKAPKLLIYNAKTLADGVPSRFSGSGSGTDYTFTISSLQPEDIATYYCQHFWSIPYTFGQGTKLQITRTVAAPDIQMTQSPSSLSASVGDRVTITCRASSGIISYIDWFQQKPGKAPKRLIYATFDLASGVPSRFSGSGSGTDYTLTISSLQPEDFATYYCRQVGSYPETFGQGTKLEIKRTVAAPSVFIFPPSDEQLKSGTASVVCLLNNFYPREAKVQWKVDNALQSGNSQESVTEQDSKDSTYSLSSTLTLSKADYEKHKVYACEVTHQGLSSPVTKSFNRGEC
				300	1.1e-05	37000	24	2.2e-05	940000	DVD1264 (bispecific antibody, human IgG1, kappa, V1 wt hIgG1, V2 kappa; also called DVD1264H; DVD1264L) heavy: not shown light: DIQMTQSPSSLSASVGDRVTITCRASGNIHNYLTWYQQTPGKAPKLLIYNAKTLADGVPSRFSGSGSGTDYTFTISSLQPEDIATYYCQHFWSIPYTFGQGTKLQITRTVAAPDIQMTQSPSSLSASVGDRVTITCRASSGIISYIDWFQQKPGKAPKRLIYATFDLASGVPSRFSGSGSGTDYTLTISSLQPEDFATYYCRQVGSYPETFGQGTKLEIKRTVAAPSVFIFPPSDEQLKSGTASVVCLLNNFYPREAKVQWKVDNALQSGNSQESVTEQDSKDSTYSLSSTLTLSKADYEKHKVYACEVTHQGLSSPVTKSFNRGEC
9380	4.1									DVD1630 (bispecific antibody, human IgG1, kappa) heavy: not shown light: EIVLTQSPDFQSVTPKEKVTITCRASQDIGSELHWYQQKPDQPPKLLIKYASHSTSGVPSRFSGSGSGTDFTLTINGLEAEDAGTYYCHQTDSLPYTFGPGTKVDIKRTVAAPDIQMTQSPSSLSASVGDRVTITCRASGNIHNYLTWYQQTPGKAPKLLIYNAKTLADGVPSRFSGSGSGTDYTFTISSLQPEDIATYYCQHFWSIPYTFGQGTKLQITRTVAAPSVFIFPPSDEQLKSGTASVVCLLNNFYPREAKVQWKVDNALQSGNSQESVTEQDSKDSTYSLSSTLTLSKADYEKHKVYACEVTHQGLSSPVTKSFNRGEC
438	6.5									DVD1632 (bispecific antibody, human IgG1, kappa) heavy: not shown light: EIVLTQSPDFQSVTPKEKVTITCRASQDIGSELHWYQQKPDQPPKLLIKYASHSTSGVPSRFSGSGSGTDFTLTINGLEAEDAGTYYCHQTDSLPYTFGPGTKVDIKRTVAAPDIQMTQSPSSLSASVGDRVTITCRASGNIHNYLTWYQQTPGKAPKLLIYNAKTLADGVPSRFSGSGSGTDYTFTISSLQPEDIATYYCQHFWSIPYTFGQGTKLQITRTVAAPSVFIFPPSDEQLKSGTASVVCLLNNFYPREAKVQWKVDNALQSGNSQESVTEQDSKDSTYSLSSTLTLSKADYEKHKVYACEVTHQGLSSPVTKSFNRGEC
				< 20	< 1e-06	51000	67	0.00057	8.5e+06	DVD1268 (bispecific antibody, human IgG1, kappa, DVD-Ig, outer AB271, inner AB273, linker set 1; V1 wt hIgG1, V2 kappa; also called DVD1268H; DVD1268L) heavy: not shown light: DTVVTQSPAFLSVTPGEKVTITCITSTDIDVDMNWYQQKPDQPPKLLISQGNTLRPGVPSRFSSSGSGTDFTFTISSLEAEDAATYYCLQSDNLPLTFGQGTKLEIKRTVAAPDIQMTQSPSSLSASVGDRVTITCRASSGIISYIDWFQQKPGKAPKRLIYATFDLASGVPSRFSGSGSGTDYTLTISSLQPEDFATYYCRQVGSYPETFGQGTKLEIKRTVAAPSVFIFPPSDEQLKSGTASVVCLLNNFYPREAKVQWKVDNALQSGNSQESVTEQDSKDSTYSLSSTLTLSKADYEKHKVYACEVTHQGLSSPVTKSFNRGEC
				< 3.2	< 1e-06	310000	32	3.1e-05	960000	DVD1591 (bispecific antibody, human IgG1, kappa, V1 wt hIgG1, V2 kappa; also called DVD1591H; DVD1591L) heavy: not shown light: DIQMTQSPSSLSASVGDRVTITCRASGNIHNYLTWYQQTPGKAPKLLIYNAKTLADGVPSRFSGSGSGTDYTFTISSLQPEDIATYYCQHFWSIPYTFGQGTKLQITRTVAAPSVFIFPPDIQMTQSPSSLSASVGDRVTITCRASSGIISYIDWFQQKPGKAPKRLIYATFDLASGVPSRFSGSGSGTDYTLTISSLQPEDFATYYCRQVGSYPETFGQGTKLEIKRTVAAPSVFIFPPSDEQLKSGTASVVCLLNNFYPREAKVQWKVDNALQSGNSQESVTEQDSKDSTYSLSSTLTLSKADYEKHKVYACEVTHQGLSSPVTKSFNRGEC
				27	9.2e-06	340000	64	0.00047	7.4e+06	DVD1593 (bispecific antibody, human IgG1, kappa, DVD-Ig, outer AB270, inner AB273, linker set 2; V1 wt hIgG1, V2 kappa; also called DVD1593H; DVD1593L) heavy: not shown light: DTQVTQSPSSLSASVGDRVTITCITSTDIDVDMNWYQQKPGKPPKLLISQGNTLRPGVPSRFSSSGSGTDFTFTISSLQPEDFATYYCLQSDNLPLTFGQGTKLEIKRTVAAPSVFIFPPDIQMTQSPSSLSASVGDRVTITCRASSGIISYIDWFQQKPGKAPKRLIYATFDLASGVPSRFSGSGSGTDYTLTISSLQPEDFATYYCRQVGSYPETFGQGTKLEIKRTVAAPSVFIFPPSDEQLKSGTASVVCLLNNFYPREAKVQWKVDNALQSGNSQESVTEQDSKDSTYSLSSTLTLSKADYEKHKVYACEVTHQGLSSPVTKSFNRGEC
17400	6.4									DVD1626 (bispecific antibody, human IgG1, kappa) heavy: not shown light: DIQMTQSPSSLSASVGDRVTITCRASSGIISYIDWFQQKPGKAPKRLIYATFDLASGVPSRFSGSGSGTDYTLTISSLQPEDFATYYCRQVGSYPETFGQGTKLEIKRTVAAPDTVVTQSPAFLSVTPGEKVTITCITSTDIDVDMNWYQQKPDQPPKLLISQGNTLRPGVPSRFSSSGSGTDFTFTISSLEAEDAATYYCLQSDNLPLTFGQGTKLEIKRTVAAPSVFIFPPSDEQLKSGTASVVCLLNNFYPREAKVQWKVDNALQSGNSQESVTEQDSKDSTYSLSSTLTLSKADYEKHKVYACEVTHQGLSSPVTKSFNRGEC
